One may read the Kd as the constant that tells how readily two partners part at equilibrium. What is called koff is the rate constant with which the complex falls apart. For orientation: kon means the second-order rate constant of association. Low readings indicate slow association, high ones fast association.

Experiment [1] addresses EGFR loop peptide, His-tagged (EGFRlp-HIS) (human). The experiment is described as follows: BLI (Octet Red96), His-tagged antigen on Ni-NTA biosensors, antibody in solution, 30 C.
Experiment [2] concerns the target EGFR and EGFRvIII on GBM39 cells (patient derived xenograft glioblastoma line). The experiment in a line: flow cytometry on GBM39 cells, antibody at 0.2 µg/ml. On the technique in general: In flow cytometry, cells or beads pass a laser one at a time.
The target is the same in experiment [3]. The experiment in a line: flow cytometry on GBM39 cells, antibody at 2 µg/ml.
For experiment [4] the target is unchanged. The experiment in a line: flow cytometry on GBM39 cells, antibody at 20 µg/ml.
In experiment [5] the target is EGFR loop peptide, His-tagged (EGFRlp-HIS) (human). The experiment in a line: BLI (Octet Red96), His-tagged antigen on Ni-NTA biosensors, conjugate in solution, 30 C.
For experiment [6], the target named is EGFRvIII on F98npEGFRvIII cells (rat glioma F98 transfected with nonphosphorylated EGFRvIII). The experiment is described as follows: flow cytometry, antibodies added at 2 µg/ml, F98-npEGFRvIII cells.

B1: monoclonal antibody 40H3 (antibody, V domains shown)
VH: QVQLKQSGPGLVQPSQSLSITCTVSGFSLTNYGIHWLRQSPGKGLEWLGMMWRGGGTDYNAAFISRLTITKDTSKSQVFFRMNNLQTNDTAIYYCARKGVGMGLGYWGQGTSVTVSS
VL: DIQMTQSPASQSASLGESVTITCLASQTIGTWVAWYQQKPGRSPQLLIYGATNLADGVPSRFSGSGSGTKFSFKISSLQAEDFVSYYCQQLYSNPYTFGGGTKLEIK
In experiment [1], B1 yielded a Kd of 1.11 nM. The same molecule came in with a koff in experiment [1] of 6.07e-05 s⁻¹. Also, the kon in experiment [1] was 54900 M⁻¹ s⁻¹. In addition, the median fluorescent intensity was 9450 in experiment [2], 10700 in experiment [3] and 8600 in experiment [4].

B2: 40H3 MMAE antibody drug conjugate (antibody, V domains shown)
VH: B1 VH
VL: B1 VL
B2: in experiment [5], the Kd was 0.0846 nM, the koff is 2.24e-05 s⁻¹ and the kon amounted to 265000 M⁻¹ s⁻¹.

B3: 40H3 DM1 antibody drug conjugate (antibody, V domains shown)
VH: B1 VH
VL: B1 VL
In experiment [5], B3 displayed a Kd of 0.442 nM, an off-rate (koff) of 8.95e-05 s⁻¹ and a kon of 202000 M⁻¹ s⁻¹.

B4: monoclonal antibody 11G3 (antibody, V domains shown)
VH: QVQLKQSGPSLVQPSQSLSITCTVSGFSLTNYGVHWVRQSPGKGLEWLGVMWRGGRTDYNAAFMSRLSITKDNSRSQVFFKMNSLQTDDAAIYYCAKNGPFGNFAGYWGQGTLVTVST
VL: DIVMSQSPSSLPVSVGEKVSLTCKSSRSLLDNQKHYLAWYQQKPGQSPKLLIYWASTRESGVPDRFTGSGSGTEFTLTISSVKAEDLAVYYCQQFYNYPYTFGGGTKLEIK
For B4, in experiment [6], the Median : PE-A stood at 1080.

These data come from patent publication US20260193363A1.
